In series [1] the target is T1, E. coli FabG (3-ketoacyl-ACP reductase) (Escherichia coli, UniProt P0AEK2).
T1 construct: homotetramer
T1 sequence (P0AEK2 1-244): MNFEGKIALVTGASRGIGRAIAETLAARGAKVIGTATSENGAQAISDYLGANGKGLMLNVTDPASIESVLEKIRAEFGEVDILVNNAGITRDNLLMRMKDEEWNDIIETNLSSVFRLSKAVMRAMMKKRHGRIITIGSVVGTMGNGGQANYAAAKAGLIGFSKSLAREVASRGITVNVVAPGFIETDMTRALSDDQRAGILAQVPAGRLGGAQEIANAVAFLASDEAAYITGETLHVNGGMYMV
The experiment in a line: fluorescence titration. Format: binding. From the text: (§1) fluorescence titration on E. coli FabG (3-ketoacyl-ACP reductase) | wildtype FabG and mutant proteins S138A and Y151F could bind NADPH with Kd values

The target of series [2] is T2, E. coli FabG (3-ketoacyl-ACP reductase) (Escherichia coli, UniProt P0AEK2, S138A).
T2 construct: homotetramer
The experiment in a line: fluorescence titration. It is filed as binding.
Text: as §1

Series [3] concerns the target T3, E. coli FabG (3-ketoacyl-ACP reductase) (Escherichia coli, UniProt P0AEK2, Y151F).
T3 construct: homotetramer
The experiment in a line: fluorescence titration. Format: binding.
Text: as §1

Substrate in series [4]: NC(=O)C1=CN([C@@H]2O[C@H](COP(=O)(O)OP(=O)(O)OC[C@H]3O[C@@H](n4cnc5c(N)ncnc54)[C@H](OP(=O)(O)O)[C@@H]3O)[C@@H](O)[C@H]2O)C=CC1
The series is described as follows: purified protein. It is filed as biochemical, Escherichia coli. To be noted: acetoacetyl-ACP generated in situ (100 μM ACP, 500 μM malonyl-CoA, 500 μM acetyl-CoA, FabD, FabH), 0.1 M sodium phosphate pH 7.0, varied: cofactor.

The text below walks through data of PMC7973133, “Escherichia coli FabG 3-ketoacyl-ACP reductase proteins lacking the assigned catalytic triad residues are active enzymes” (The Journal of Biological Chemistry, 2021).

Where a chain is given by its changes, count along the chain named. Numbers in names are those of the source.

`NC(=O)C1=CN([C@@H]2O[C@H](COP(=O)(O)OP(=O)(O)OC[C@H]3O[C@@H](n4cnc5c(N)ncnc54)[C@H](OP(=O)(O)O)[C@@H]3O)[C@@H](O)[C@H]2O)C=CC1` [NADPH]: the results for the Kd in series [1], in series [2] and in series [3] were 13.2 µM, 13.9 µM and 15.8 µM, respectively.

B1: E. coli FabG (3-ketoacyl-ACP reductase) (Escherichia coli K-12) (protein)
chain: T1 sequence (P0AEK2 1-244)
notes: homotetramer
On to B1, for which the Km in series [4] stood at 99.22 µM.

B2: E. coli FabG (3-ketoacyl-ACP reductase) (Escherichia coli K-12; S138A) (protein)
chain: T1 sequence (P0AEK2 1-244) with S138A
notes: homotetramer
As for B2, in series [4], the Michaelis constant (Km) was found to be 101.47 µM.

B3: E. coli FabG (3-ketoacyl-ACP reductase) (Escherichia coli K-12; Y151F) (protein)
chain: T1 sequence (P0AEK2 1-244) with Y151F
notes: homotetramer
As for B3, the Km in series [4] came to 147.72 µM.

B4: E. coli FabG (3-ketoacyl-ACP reductase) (Escherichia coli K-12; K155A) (protein)
chain: T1 sequence (P0AEK2 1-244) with K155A
notes: homotetramer
For the molecule B4, the Michaelis constant (Km) in series [4] worked out at 166.45 µM.
